Data on two molecules can be found in CN111234017A (NANJING YOUMAI BIOTECHNOLOGY CO LTD, dated 2020).

The target in assay [1] is T1, human PD-L1 expressed on cells (CT26 transfected with human PD-L1, HCC827, Raji-PD-L1, CHO-PDL1-OKT3) (human, UniProt Q9NZQ7 19-290). Nature of the assay: cell-based or functional assay.
The target in assay [2] is T1, human PD-L1 expressed on cells (CT26 …). Put plainly: flow cytometry on CT26 cells transfected with human PD-L1. Background: A flow cytometer gives signals particle by particle.
For assay [3] the target is unchanged. Put plainly: flow cytometry on HCC827 cells naturally overexpressing PD-L1.
Assay [4] has as its target T2, 人PD-L1蛋白 (human PD-L1 protein) (human, UniProt Q9NZQ7 19-238, limits assumed).
T2 construct: also called CD274; B7-H1
Nature of the assay: ELISA, human PD-L1 protein coated at 1 μg/mL, HRP secondary antibody, OD450.

Assay [5] deals with T1, human PD-L1 expressed on cells (CT26 …). Nature of the assay: flow cytometry competition: inhibition of human PD-1-Fc binding to Raji-PD-L1 cells.
For assay [6], the target named is T2, 人PD-L1蛋白 (human PD-L1 protein). Put plainly: SPR, Biacore 8K, antibody captured on protein A sensor chip, PD-L1 protein as analyte.
Assay [7] concerns the target 食蟹猴PD-L1蛋白 (cynomolgus monkey PD-L1 protein) (cynomolgus monkey). Put plainly: ELISA on coated cynomolgus PD-L1 protein. A general note: In an ELISA, binding on a coated surface is turned into a signal by an enzyme label.

T2 sequence (Q9NZQ7 19-238 limits assumed): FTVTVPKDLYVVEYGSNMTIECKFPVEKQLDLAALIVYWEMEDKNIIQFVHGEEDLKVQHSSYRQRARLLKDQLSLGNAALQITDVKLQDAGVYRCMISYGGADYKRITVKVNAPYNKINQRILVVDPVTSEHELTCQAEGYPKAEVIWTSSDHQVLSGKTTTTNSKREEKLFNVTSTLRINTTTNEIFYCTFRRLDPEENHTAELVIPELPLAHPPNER
T1 sequence (Q9NZQ7 19-290): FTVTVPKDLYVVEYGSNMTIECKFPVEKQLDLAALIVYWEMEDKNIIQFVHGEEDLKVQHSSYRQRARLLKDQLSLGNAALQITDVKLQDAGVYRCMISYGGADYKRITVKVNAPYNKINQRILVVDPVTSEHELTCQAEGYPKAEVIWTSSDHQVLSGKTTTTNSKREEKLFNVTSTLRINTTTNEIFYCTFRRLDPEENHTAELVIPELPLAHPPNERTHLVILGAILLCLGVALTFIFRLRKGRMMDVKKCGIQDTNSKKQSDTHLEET

B1: 人源化抗体MT02-C4 (humanized anti-human PD-L1 antibody MT02-C4) (antibody, human IgG1, kappa, V domains shown)
VH: QVQLQESGPGLVKPSETLSLTCTVSGDSITSGYWSWIRQPPGKGLEYMGYISYTGSTYYSPSLIRRMTISRDTSKNQFSLKLSSVTAADTAVYYCAKYENWKEGYFDIWGQGTLVTVSS
VL: DIQMTQSPSSLSASVGDRVTITCKASQNVGINVAWYQQKPGKAPKALIYSATQRYSGVPSKFSGSGSGTDFTLTISSLQPEDFATYFCQQYYGYPLTFGQGTRLEIKR
notes: Humanized (CDR grafting with back mutations), human IgG1 / kappa
Take B1: the “Jurkat-PD-1/NFAT-luciferase报告基因活性 (luciferase bioluminescence), EC50” value in assay [1] was 0.0838 µg/mL. The EC50 in assay [2] was found to be 0.378 µg/mL; in assay [3] it was 0.0864 µg/mL; in assay [4], 0.0651 µg/mL. In assay [5], this molecule yielded an IC50 of 0.298 µg/mL. This molecule also gave a Kd in assay [6] of 400 pM.

B2: 人-鼠嵌合抗体MT02-L4 (human-mouse chimeric anti-human PD-L1 antibody MT02-L4) (antibody, human IgG1, kappa, V domains shown)
VH: EVQLQESGPSLVKPSQTLSLTCSVTGDSITSGYWSWIRKFPGNNLDYMGYISYTGSTYYSPSLIRRMSINRDTSKNQFYLQLNSVTTEDTATYYCAKYENWKEGYFDIWGAGTTVTVSS
VL: DIVMTRSQKFMSTSVGDRVSVTCKASQNVGINVAWYQQKAGQSPKALIHSATQRYSGVPDRFTGGGSGTDFTLTIDDVQSADLAEYFCQQYYGYPLTFGAGTRLELKR
notes: Mouse 13B8 variable regions joined to the human IgG1 heavy constant region and the kappa constant region
Take B2: the EC50 in assay [7] turned out to be 0.0422 µg/mL; in assay [2], 0.209 µg/mL; in assay [3] it was 0.0445 µg/mL; in assay [4], 0.216 µg/mL. In assay [5], this molecule came in with an IC50 of 0.481 µg/mL.

The EC50 is the concentration that produces a half-maximal response. As a reminder, the IC50 is the concentration needed to halve the response being measured. Broadly, the Kd is the free concentration of one partner at which half of the binding sites on the other are occupied at equilibrium, for simple one-to-one binding.
